The text below walks through data of patent US9394371B2, “Antibody-mediated disruption of quorum sensing in bacteria” (The Scripps Research Institute, priority 2007, dated 2016).

A value given as a limit tells only on which side of the number the result lay.

In assay [1] the target is AIP-1. Kind of assay: Competition ELISA (free native AIP against hapten-BSA coated plates). To be noted: AP1 Sups; AP1-BSA coated plates; read-out: AIP1 wt. Format: binding, S. aureus. On the technique in general: In an ELISA, binding on a coated surface is turned into a signal by an enzyme label.
The subject of assay [2] is S. aureus RN6390B. The assay is classed as cell-based.
In assay [3] the test system is S. aureus RN6390B. Kind of assay: Static biofilm analysis (crystal violet). Format: cell-based. To be noted: FIG. 10B.
Assay [4] deals with AIP-4. As to the kind of experiment: Competition ELISA (free native AIP against hapten-BSA coated plates). The assay is classed as binding, S. aureus. Particulars: AP1 Sups; AP1-BSA coated plates; read-out: AIP4 wt. How it is done:
(§1) The optimal concentrations of the AP4-BSA conjugate as well as of each mAb were determined. 96 well ELISA plates were coated with the appropriate amount of AP4-BSA conjugate respectively. The plates were blocked with 4% skim milk, washed and mAbs were added at the predetermined optimal concentration. The plates were washed and free antigen, i.e. the native AIPs 1-4, was added to the wells in a concentration series starting at 100 μM. The plate was incubated for 1 hour at 37° C., thoroughly washed, and goat anti-mouse-horseradish peroxidase (HRP) conjugate (Pierce, Rockford, Ill.) was added. After an incubation period of 1 hour at RT, the plate was thoroughly washed again and the HRP substrate (TMB substrate kit; Pierce) was added, the reaction was allowed to develop for 15 minute and stopped by the addition of 2 M H2SO4. The absorbance at 450 nm was read and the values plotted using GraFit (Erithacus Software Ltd). The free antigen concentration at which the absorbance value is 50% of the maximum absorbance was considered the Kd of the antibody for its antigen.
as §1, with “For the competition ELISA analysis, the optimal concentrations” for “The optimal concentrations”, “of the AP1-BSA, AP3-BSA, or AP4-BSA conjugate,” for “of the AP4-BSA conjugate”, “or AP4-BSA conjugate, as well” for “the AP4-BSA conjugate as well”, “amount of AP1-BSA, AP3-BSA, or AP4-BSA conjugate” for “amount of AP4-BSA conjugate”, “blocked with 4 v % skim milk,” for “blocked with 4% skim milk,”, “for 15 minutes and stopped” for “for 15 minute and stopped”

The subject of assay [5] is S. aureus USA300. Kind of assay: Postexposure therapy of lethal systemic MRSA USA300 challenge. The assay is classed as in vivo, C57BL/6 mice. Particulars: 1 mg i.p. 2 hours after infection with at least 1×10^8 S. aureus USA300; n=6; FIG. 12. How it is done: Mice were treated with AP1-15B4 (1 mg) or control IgG (1 mg) 2 hours after S. aureus injection (1-3×10^8 i.p.). The numbers in parenthesis show survivors per group, p=0.02; n=6 for each group.
C57BL/6 mice received 1 mg of AP1-15B4 (i.p.), isotype control IgG or PBS 2 hours after they had been infected with at least 1×10^8 S. aureus USA300, an agr I MRSA strain. See Diep et al., Lancet 2006, 367, (9512), 731-739. USA300 is in fact one of the most common community-acquired MRSA (CA-MRSA) strains and represents an increasing threat for civilians and military personnel. Hageman et al., Diagn Microbiol Infect Dis 2008; James et al., Arch Dis Child Fetal Neonatal Ed 2008, 93, (1), F40-4; Tenover et al., J Clin Microbiol 2006, 44, (1), 108-18; Beilman et al., Surg Infect (Larchmt) 2005, 6, (1), 87-92. […] In contrast, only two of the PBS treated control mice (2/6) and 2 of the control IgG treated mice (2/6) survived longer than 24 hours.

For assay [6], the target named is AIP-2. As to the kind of experiment: Competition ELISA (free native AIP against hapten-BSA coated plates). Format: binding, S. aureus. To be noted: AP1 Sups; AP1-BSA coated plates; read-out: AIP2 wt.

B1: AP1-15B4: murine anti-AIP1 monoclonal antibody; VH SEQ ID NO: 19, VL SEQ ID NO: 147 (antibody, V domains shown)
VH: EVHLVESGGDLVKPGGSLKLSCAASGFAFSDFAMSWVRQTPEKRLEWVAIIKSDDSYTYYPDSVRDRFTISRDNARNTLYLQMTSLRSEDTALYYCTKIYDAYFYAMDYWGQGTSVTVSS
VL: DIVRTQSPLSLSVSLGDQASISCRSSQSLLHSNGNTYLHWYLQKPGQSPKLLIYKVSNRFSGVPDRFSGSGSGTDFTLKISILEAEDLGIYFCSQSTHFPTFGGGTKLEIK
modifications: Murine
For the molecule B1, the Kd in assay [1] was roughly 0.8 µM; in assay [4], greater than 100 µM; in assay [6], greater than 100 µM. The “quorum sensing inhibition of group I strains (α-hemolysin expression)” value in assay [2] is “efficiently inhibit quorum sensing”. Moreover, the “quorum sensing inhibition, hemolysin expression” value in assay [2] was “most potent activity”. The static biofilm formation entry in assay [3] is “increase in biofilm formation”. In addition, in assay [5], the “mice surviving through the 48-hour observation period” value was 4 out of 6.
